Data reported in publication PMC3252480 (Nature structural & molecular biology, 2011).

B1: GST-Ypt10 (natural protein, S. cerevisiae, UniProt P38146 1-199, looked up)
chain: MEATIKVVLLGDSSVGKTSIVTRLKSGKFLAKHAATIGAAFITKTIEVPSNDSSTEKRIHMEIWDTAGQERYKSLVPMYYRDANIALIVFELGDVSSLQCAKTWFQDLQDRAQGTQVIIVGNKYDLVCEEHSGEVTIPAELQGLPYVAVSAKTGYNFDTLNKIIISLVPESQFKTLSKNNEQGNILEINKKKSGSGCIC
B2: Vps21-His10 (natural protein, S. cerevisiae, UniProt P36017 1-210, looked up)
chain: MNTSVTSIKLVLLGEAAVGKSSIVLRFVSNDFAENKEPTIGAAFLTQRVTINEHTVKFEIWDTAGQERFASLAPMYYRNAQAALVVYDVTKPQSFIKARHWVKELHEQASKDIIIALVGNKIDMLQEGGERKVAREEGEKLAEEKGLLFFETSAKTGENVNDVFLGIGEKIPLKTAEEQNSASNERESNNQRVDLNAANDGTSANSACSC

Assays:
[1] = molecular target: Vps21-His10 (S. cerevisiae) (UniProt P36017); assay: liposome tethering by quasielastic light scattering
Vps21-His10 = molecular target: B2; assay: bead-liposome tethering assay
GST-Ypt53 = molecular target: T1, GST-Ypt53 (S. cerevisiae, UniProt P36019 1-220); assay: bead-liposome tethering assay
T1 sequence (looked up): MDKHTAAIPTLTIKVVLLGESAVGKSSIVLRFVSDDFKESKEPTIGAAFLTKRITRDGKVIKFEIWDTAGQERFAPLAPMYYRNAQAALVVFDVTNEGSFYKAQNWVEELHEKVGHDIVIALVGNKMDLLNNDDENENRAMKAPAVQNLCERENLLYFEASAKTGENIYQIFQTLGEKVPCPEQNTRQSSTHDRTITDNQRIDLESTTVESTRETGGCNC

With “Vps21-His10 (from UniProt P36017 1-210) (natural protein)” the critical surface density for tethering [1] was < 1300 μm^−2.

B1: binds (Vps21-His10).

B2: binds (GST-Ypt53).
